Kd data for one substance are collected here from PMC5691136, “The role of CXCR3/LRP1 cross-talk in the invasion of primary brain tumors” (Nature Communications, 2017).

The assay addresses CXCR3-A (human CXC chemokine receptor CXCR3, isoform A), stably expressed in U87 cells (human) (UniProt P49682). As to the kind of experiment: plasmon waveguide resonance (PWR); membrane fragments of U87-CXCR3-A or HEK-CXCR3-A cells captured on the polylysine-treated silica sensor; ligand added incrementally in PBS, 22 °C; shifts of the resonance minimum fitted with a hyperbolic single-site function.

Chain of CXCR3-A (human CXC chemokine receptor CXCR3, isoform A), stably expressed in U87 cells (human) (P49682 whole entry, the tested form may be a part, canonical isoform): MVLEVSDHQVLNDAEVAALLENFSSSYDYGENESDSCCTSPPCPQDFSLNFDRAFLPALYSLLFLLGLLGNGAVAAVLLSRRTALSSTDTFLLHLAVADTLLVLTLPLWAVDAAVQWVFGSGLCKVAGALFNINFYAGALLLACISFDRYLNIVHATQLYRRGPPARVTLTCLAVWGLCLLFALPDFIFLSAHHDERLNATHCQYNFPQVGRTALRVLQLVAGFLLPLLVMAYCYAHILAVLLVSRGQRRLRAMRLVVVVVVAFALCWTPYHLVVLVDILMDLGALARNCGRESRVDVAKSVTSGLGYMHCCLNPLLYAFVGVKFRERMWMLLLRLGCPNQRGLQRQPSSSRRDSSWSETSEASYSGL

In the case of PS372424 (CXCR3 agonist) (peptide), the Kd – broadly, the concentration at which binding is half-saturated – turned out to be 36 nM.
